From US20220381793A1, “COMPOSITIONS AND METHODS FOR IDENTIFYING MHC-II BINDING PEPTIDES” (priority 2021, published 2022)

Key:
[1] = molecular target: T1, “empty” DR4 (DRA*01:01/DRB1*04:01) on yeast (Homo sapiens, UniProt P01903+P01911); test: RIPPA competition assay, yeast displaying “empty” DR4, SARS-CoV-2 S peptides; assay type: binding; conditions: 200 μM competitor vs 20 μM Bio-HA306-318, pH 5.0, 30° C., 20 hours
T1 construct: the α chain ectodomain, with or without the Jun motif, was designed to be secreted from yeast; the DR4 β chain ectodomain, with or without the Fos motif, was engineered to the upstream of yeast AGA2 gene; Syn-pre-pro leader (secretion leader) (N); expressed in transfected cells; host or cells: Saccharomyces cerevisiae EBY100, surface display via Aga1p/Aga2p
T1 sequence (P01903 with tags, fused parts or gaps): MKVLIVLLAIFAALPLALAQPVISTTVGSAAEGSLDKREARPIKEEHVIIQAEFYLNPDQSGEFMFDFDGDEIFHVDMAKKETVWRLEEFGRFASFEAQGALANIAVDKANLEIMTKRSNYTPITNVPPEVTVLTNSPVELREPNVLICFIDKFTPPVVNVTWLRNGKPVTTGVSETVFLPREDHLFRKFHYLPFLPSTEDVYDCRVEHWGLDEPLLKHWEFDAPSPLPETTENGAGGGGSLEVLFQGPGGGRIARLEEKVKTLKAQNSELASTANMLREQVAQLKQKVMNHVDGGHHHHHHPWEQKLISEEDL
T1 sequence (P01911 with tags, fused parts or gaps with the stated changes): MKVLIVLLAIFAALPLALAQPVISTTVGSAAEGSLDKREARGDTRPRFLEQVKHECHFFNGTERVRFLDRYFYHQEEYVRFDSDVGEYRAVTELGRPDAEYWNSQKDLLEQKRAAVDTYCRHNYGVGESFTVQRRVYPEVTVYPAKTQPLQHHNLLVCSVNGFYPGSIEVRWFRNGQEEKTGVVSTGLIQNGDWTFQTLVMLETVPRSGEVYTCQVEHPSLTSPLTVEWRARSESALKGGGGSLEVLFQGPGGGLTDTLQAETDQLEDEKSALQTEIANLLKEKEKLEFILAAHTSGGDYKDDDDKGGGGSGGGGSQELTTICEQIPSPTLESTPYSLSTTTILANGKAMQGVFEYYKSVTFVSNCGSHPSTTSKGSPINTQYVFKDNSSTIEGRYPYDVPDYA
T1 sequence (P32323 25-725 partner): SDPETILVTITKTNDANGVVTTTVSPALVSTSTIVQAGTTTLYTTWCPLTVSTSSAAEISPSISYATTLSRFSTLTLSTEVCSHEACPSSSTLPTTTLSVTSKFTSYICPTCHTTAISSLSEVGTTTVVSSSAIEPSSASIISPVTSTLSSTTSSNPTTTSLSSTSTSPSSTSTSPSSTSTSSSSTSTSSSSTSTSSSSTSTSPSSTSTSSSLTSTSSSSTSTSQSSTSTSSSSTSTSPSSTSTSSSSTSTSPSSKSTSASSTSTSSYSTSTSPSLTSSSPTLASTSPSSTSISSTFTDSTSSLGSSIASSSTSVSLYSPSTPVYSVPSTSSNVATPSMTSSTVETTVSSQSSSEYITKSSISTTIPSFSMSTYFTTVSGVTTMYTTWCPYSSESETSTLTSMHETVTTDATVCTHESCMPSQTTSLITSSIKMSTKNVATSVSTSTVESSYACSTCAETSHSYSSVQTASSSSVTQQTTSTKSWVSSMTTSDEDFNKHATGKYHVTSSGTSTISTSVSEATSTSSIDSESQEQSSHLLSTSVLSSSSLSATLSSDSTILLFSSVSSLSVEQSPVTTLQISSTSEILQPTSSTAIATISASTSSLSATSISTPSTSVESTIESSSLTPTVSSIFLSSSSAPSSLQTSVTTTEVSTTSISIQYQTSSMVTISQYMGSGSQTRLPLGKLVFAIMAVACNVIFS

[2] = molecular target: T2, “empty” DQ6 (DQA1*01:02/DQB1*06:02) on yeast (Homo sapiens, UniProt P01909+P01920); test: RIPPA competition assay, yeast displaying “empty” DQ6, HCRT 15-mer peptides; assay type: binding; conditions: for DQ6 binding (in words): method not given, possible false positives
T2 construct: A PCR fragment carrying the extracellular domain of HLA-DQA1*0102 with C-terminal Fos was cloned into ptDR1; A second PCR fragment carrying the extracellular domain of HLA-DQB1*0602 with C-terminal Jun was cloned into pDQ6α; Syn-pre-pro leader (secretion leader) (N); expressed in transfected cells; host or cells: Saccharomyces cerevisiae EBY100, surface display via Aga1p/Aga2p
T2 sequence (P01909 with tags, fused parts or gaps with the stated changes): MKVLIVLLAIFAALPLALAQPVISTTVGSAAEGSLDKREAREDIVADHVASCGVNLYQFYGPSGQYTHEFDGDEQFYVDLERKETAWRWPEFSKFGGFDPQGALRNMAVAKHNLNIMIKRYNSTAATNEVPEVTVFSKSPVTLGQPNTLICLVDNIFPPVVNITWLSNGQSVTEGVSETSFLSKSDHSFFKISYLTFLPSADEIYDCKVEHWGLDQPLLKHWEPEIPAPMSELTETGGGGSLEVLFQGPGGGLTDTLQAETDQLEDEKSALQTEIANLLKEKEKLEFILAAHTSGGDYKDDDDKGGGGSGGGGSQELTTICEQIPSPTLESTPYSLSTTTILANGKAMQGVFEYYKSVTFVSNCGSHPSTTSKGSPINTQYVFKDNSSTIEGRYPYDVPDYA
T2 sequence (P01920 with tags, fused parts or gaps with the stated changes): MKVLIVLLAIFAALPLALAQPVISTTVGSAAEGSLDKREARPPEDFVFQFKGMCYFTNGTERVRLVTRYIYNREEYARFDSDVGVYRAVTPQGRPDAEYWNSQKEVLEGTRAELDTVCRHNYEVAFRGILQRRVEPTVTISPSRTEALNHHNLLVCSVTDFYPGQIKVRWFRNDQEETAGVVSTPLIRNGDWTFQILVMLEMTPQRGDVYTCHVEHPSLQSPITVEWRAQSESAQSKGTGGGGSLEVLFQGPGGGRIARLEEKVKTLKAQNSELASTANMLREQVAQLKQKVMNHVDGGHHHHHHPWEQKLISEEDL
T2 sequence (P32323 25-725 partner): as the sequence (P32323 25-725 partner) above
Method: FIGS. 4A-4C. RIPPA identified all DQ6 binders from HCRT. FIG. 4A. Yeast expressing “empty” DQ6 was incubated with 20 μM HCRT1-13-Bio and 200 μM of the indicated non-biotinylated HCRT 15-mer peptide at pH 5.0, 30° C. for 20 hours and analyzed by flow cytometry. % Competition=100%−% binding (% binding as calculated in FIG. 3E). Error bars represent SEM from three independent experiments. Bolded letters denote previously identified 9-aa DQ6-binding registers^4, 5, 42: […], SSGAAAQPL, NHAAGILTL and NHAAGILTM, respectively. HCRT49-63 or HCRT81-95 covers <8 aa of the previously determined registers. Binding ranks for each HCRT peptide predicted by NetMHCIIpan-4.0 (trained on both elution and binding data) are shown as 100-% rank to the left. FIGS. 4B-4C. Correlation analysis for binding data acquired using “empty” DQ6 on yeast versus soluble CLIP/DQ6 protein (FIG. 4B) or versus NetMHCIIpan-4.0 prediction (FIG. 4C). Arrows indicate peptides that show binding in one method but not the other in the comparison. Open circles in FIG. 4B match open bars in FIG. 4A, indicating ligands identified by both empirical methods.
6×10^5 galactose-induced yeast were incubated at pH 5.0, 30° C. for 20 hours with 20 μM biotinylated indicator peptides in the presence of various concentrations of a competitor peptide to determine an appropriate competitor concentration for a competition assay. […] After incubation, the yeast cells were washed with PBS+1% BSA, stained with streptavidin-AF647 and analyzed by flow cytometry as described above. […]
Sufficient amounts of galactose-induced yeast cells displaying “empty” DQ6 were collected by centrifugation at 2,500 g for 3 min and resuspended in the 40 mM citrate buffer (pH 5.0) at a density of 1.5×10^4 cells μl^−1. […] DQ6-associated HCRT1-13-Bio was labeled with streptavidin-AF647 and analyzed by flow cytometry as described above. The binding of a competitor peptide to “empty” DQ6 on yeast was quantified as % competition=100%−[(MFIwith competitor−background)/(MFIwithout competitor−background)]×100%.

Which “% competition” value [1] does the source give for “S1058-1074: 17-mer overlapping peptide derived from the SARS-CoV-2 S protein (HGVVFLHVTYVPAQEKN)” here?
The value was roughly 75%.

For “5862-888: DR4 ligand peptide from the SARS-CoV-2 S protein (label probably misprinted) (PPLLTDEMIAQYTSALL)”, which “% competition” value [1] is on record?
The value was roughly 75%.

“S764-780: 17-mer overlapping peptide derived from the SARS-CoV-2 S protein (NRALTGIAVEQDKNTQE)” was tested. Which “% competition” value [1] did it give?
The value was less than 50%.

For “HCRT89-103: 15-mer overlapping peptide derived from prepro-HCRT (hypocretin precursor) (NHAAGILTMGRRAGA)”, which “% competition” value ([2]; 200 μM competitor vs 20 μM HCRT1-13-Bio, pH 5.0, 30° C., 20 hours) is on record?
Its value is greater than 75%.

For “HCRT81-95: 15-mer overlapping peptide derived from prepro-HCRT (hypocretin precursor) (QRLLQASGNHAAGIL; UniProt O43612 81-95, looked up, fragment)”, which “DQ6 binding (in words)” value [2] is on record?
Its value is “bound DQ6”.

How did the “DQ6 binding (in words)” value [2] turn out when “HCRT49-63: 15-mer overlapping peptide derived from prepro-HCRT (hypocretin precursor) (LYELLHGAGNHAAGI; UniProt O43612 49-63, looked up, fragment)” was run?
Its value is “bound DQ6”.
